Assay results from article PMC11310380 (Cell reports, 2024).

Target: the molecule itself
Assay: cross-linking

B1: P9-hTTN3 (human Tentonin 3/TMEM150C with the P9 sequence at its N terminus) (natural protein, UniProt B9EJG8 1-249, looked up)
chain: MDGKKCSVWMFLPLVFTLFTSAGLWIVYFIAVEDDKILPLNSAERKPGVKHAPYISIAGDDPPASCVFSQVMNMAAFLALVVAVLRFIQLKPKVLNPWLNISGLVALCLASFGMTLLGNFQLTNDEEIHNVGTSLTFGFGTLTCWIQAALTLKVNIKNEGRRVGIPRVILSASITLCVVLYFILMAQSIHMYAARVQWGLVMCFLSYFGTFAVEFRHYRYEIVCSEYQENFLSFSESLSEASEYQTDQV
stoichiometry N: 4
